Sequences and labels used below:
T1: H3K27me3 peptide (Kme3 (trimethyl-lysine) at the 10th residue (KQLATKAARKme3SAPATGGVK); N-terminus biotin + aminohexanoic acid linker, or FITC at the N-terminus for fluorescence polarization)
T1 construct: Synthetic peptide (GenScript); One entry is used for the biotinylated and the FITC-labelled form
T1 peptide: KQLATKAARKSAPATGGVK

T2: H3K14
T2 construct: also called H3K14 peptide (non-modified)
T2 peptide: {Biotin-Ahx}-TARKSTGGKAPRKQLAT

T3: H3R17
T3 construct: also called H3R17 peptide (non-modified)
T3 peptide: {Biotin-Ahx}-KSTGGKAPRKQLATKAA

T4: H3R17me1
T4 construct: also called H3R17me1 peptide
T4 peptide: {Biotin-Ahx}-KSTGGKAP[Arg(Me)]KQLATKAA

T5: H3K14Ac
T5 construct: also called H3K14Ac peptide
T5 peptide: {Biotin-Ahx}-TARKSTGGK(Ac)APRKQLAT

B1: Cbx7.VD chromodomain (tags removed) (designed binder)
chain: SAIGEDVFAVESIRKKRVRKGKVEYLVKWEGWPPKYSTWEPEEHILDPRLVMAYEEKEERDRASGYRKRGPK
notes: also called Cbx7 Q9D/K33E
B2: Cbx7 K33E chromodomain (tags removed) (designed binder)
chain: B1 chain with D6Q
notes: FP: His6 and Flag tags removed with TEV protease
B3: Cbx7 Q9D chromodomain (tags removed) (designed binder)
chain: B1 chain with E30K
notes: as for B2
B4: Cbx7.V1 back-mutant D9Q, His6- and Flag-tagged (designed binder, not shown: small tags and cut ends)
chain: B1 chain with E5D, D6Q, V7I, P34L, K35E
B5: Cbx7.V1 back-mutant L37P, His6- and Flag-tagged (designed binder, not shown: small tags and cut ends)
chain: B1 chain with E5D, V7I, K35E
B6: Cbx7.V1 back-mutant D8E, His6- and Flag-tagged (designed binder, not shown: small tags and cut ends)
chain: B1 chain with V7I, P34L, K35E
B7: Cbx7.V1 chromodomain, His6- and Flag-tagged (designed binder, not shown: small tags and cut ends)
chain: B1 chain with E5D, V7I, P34L, K35E
notes: BLI form; tags are said to be removed only for FP and ITC
B8: Cbx7.V1 back-mutant I10V, His6- and Flag-tagged (designed binder, not shown: small tags and cut ends)
chain: B1 chain with E5D, P34L, K35E
B9: Cbx7.V1 back-mutant E38K, His6- and Flag-tagged (designed binder, not shown: small tags and cut ends)
chain: B1 chain with E5D, V7I, P34L
B10: Cbx8.VD chromodomain-luciferase fusion (designed binder)
chain: MSYYHHHHHHGSDYKDDDDKSSGENLYFQGSGGSGEDVFAAEALLKRRIRKGRMEYLVKWEGWSQKYSTWEPEENILDARLLAAFEEREREMELYGP
notes: not shown: engineered YY5 firefly luciferase from Photinus pyralis fused to the C-terminus
B11: Cbx2.VD chromodomain-luciferase fusion (designed binder)
chain: MSYYHHHHHHGSDYKDDDDKSSGENLYFQGSGGSGEDVFAAECILSKRLRKGKLEYLVKWEGWSSKHNSWEPEENILDPRLLLAFQKKEHEKEVQNR
notes: as for B10
B12: Cbx7.VD chromodomain-luciferase fusion (designed binder)
chain: MSYYHHHHHHGSDYKDDDDKSSGENLYFQGSGGSSAIGEDVFAVESIRKKRVRKGKVEYLVKWEGWPPKYSTWEPEEHILDPRLVMAYEEKEERDRASGYRKRGPK
notes: as for B10
B13: phage-displayed Cbx7.V4 (designed binder)
chain: B1 chain with G4C, E5D, D6N, P34Q, K35E
B14: phage-displayed Cbx7.V6 (designed binder)
chain: B1 chain with G4F, A9P, E30K, P34S, K35E
B15: phage-displayed Cbx7.V5 (designed binder)
chain: B1 chain with E5H, A9P, E30R, G31D, P34E, K35Q
B16: phage-displayed Cbx7.V1 (designed binder)
chain: B1 chain with E5D, V7I, P34L, K35E
B17: phage-displayed Cbx7.V2 (designed binder)
chain: B1 chain with G4C, E5D, D6N, F8Y, A9P, E30K, P34L, K35E
B18: phage-displayed Cbx7.V3 (designed binder)
chain: B1 chain with G4C, D6Y, V7I, A9S, K35E, S37M
B19: Cbx7.wt chromodomain-luciferase fusion (other)
chain: B12 chain with D40Q, E64K
notes: as for B10
B20: Cbx2.VD chromodomain (tags removed) (designed binder)
chain: GEDVFAAECILSKRLRKGKLEYLVKWEGWSSKHNSWEPEENILDPRLLLAFQKKEHEKEVQNR

Where a chain is given by its changes, count along the chain named. Names may count otherwise. Non-standard residues stand in square brackets, D forms with d. No end group written: not given here. *: point of attachment. Biotin = O=C1N[C@H]2[C@H](CS[C@H]2CCCCC(=O)*)N1; Arg(Me) = CNC(=N)NCCC[C@H](N)C(=O)O; Ahx = NCCCCCC(=O)O

The first assay concerns the target T1, H3K27me3 peptide. As to the kind of experiment: fluorescence polarization, FITC-peptide 0.5 nM.
Experimental: (§4) Fluorescence polarization (FP) assays were performed in a 20 μl volume at a constant histone peptide concentration of 0.5 nM. Binding measurements were performed in FP buffer (25 mM HEPES pH 7.5, 150 mM NaCl, 1 mM DTT, 0.01% TritonX-100) by mixing in a 384-well black plate (Corning) 0.5 nM FITC-labeled histone peptides with serial dilutions of wild-type Cbx chromodomains ranging from 200-0.2 μM. For affinity determination of Cbx7.V1 and all Cbx. VDs, chromodomains were serially diluted from 50 μM to 50 nM. Samples were incubated for 30 min at 25° C. prior to data acquisition. […] Dissociation constants were determined using Prismv.9.3 (GraphPad Software Inc) with a one-site total binding model.
Turning to B1, the Kd stood at 5000 nM.

In the case of B2, the dissociation constant Kd turned out to be 20000 nM.

For the molecule B3, the Kd came out at 100000 nM.

Another assay addresses T1, H3K27me3 peptide. Nature of the assay: BLI, biotinylated peptide on streptavidin tips, steady state.
Experimental: BLI experiments were performed on an Octet HTX system (ForteBio) using biosensor tips coated with streptavidin to immobilize biotinylated H3K9me3 and H3K27me3 peptides. Binding analysis was performed by analyzing the association of biosensor-immobilized methylated peptides to Cbx7.V1 variants in solution at 5 or 1 μM. Binding assays were performed at 25° C. in BLI reaction buffer (25 mM HEPES pH 7.0, 150 mM NaCl, 1 mg/ml BSA, 0.01% Tween-20). Dissociation constants (KD) were obtained by fitting the response wavelength shifts in the steady-state regions with the Langmuir binding model.
Take B4: the Kd was 2000 nM.

For the molecule B5, the Kd is 2500 nM.

As for B6, the dissociation constant (Kd) came to 2000 nM.

As to B7, the Kd came out at 2000 nM.

Turning to B8, the equilibrium dissociation constant (Kd) came to 2000 nM.

As to B9, the Kd turned out to be 1500 nM.

A further assay deals with T6, H4K20 peptide (N-terminus biotin + aminohexanoic acid linker). Nature of the assay: luciferase-fusion assay on immobilized peptide. The procedure: (§1) For luciferase-based assays, 384-well white plates (PerkinElmer) were coated for 16 h at 4° C. with 4 μg/ml streptavidin (New England Biolabs, N7021S) in TBS pH 8.5 (50 mM Tris-HCl pH 8.5, 150 mM NaCl). Each well was blocked with 60 μl/well of TBS pH 8.5 containing 0.5% BSA (TB buffer) and incubated at 25° C. for 1 h. Plates were washed four times with 90 μl/well of PBS pH 7.4, 0.05% Tween-20 (PT buffer) and incubated with 25 μl/well of biotinylated histone peptides at 5 μg/ml in TB buffer pH 8.5 for 30 min at 25° C. Plates were washed and incubated with Cbx chromodomain-luciferase fusions diluted to 0.1 nM for Cbx. VD or 100 nM for Cbx.wt in TB buffer, 0.05% Tween-20, 1 mM DTT, 5% glycerol (TBT buffer). Plates were incubated for 1 h at 25° C. with gentle shaking, washed six times and luminescence intensity was measured with a Biotek Synergy 5 plate reader (Biotek) using the ONE-Glo™ EX luciferase assay system reagent (Promega). Following background subtraction of the luminescence signal derived from wells coated with streptavidin, the luminescence intensity was normalized to wells with immobilized H3K9me3 peptide.
(§2) To enhance detection sensitivity, each chromodomain was expressed as a fusion to the N-terminus of an engineered firefly luciferase and binding was measured by luminescence intensity.
Take B10: the binding result is on record as “no binding (tested: 0.1 nM)”.

For B11, the binding result was “no binding (tested: 0.1 nM)”.

Another assay concerns the target T2, H3K14. As to the kind of experiment: luciferase-fusion assay on immobilized peptide. The method, then:
as §1, §2
For B12, the binding result is recorded as “no binding (tested: 0.1 nM)”.

Take B10: the binding result is given as “no binding (tested: 0.1 nM)”.

With B11, the binding result is “no binding (tested: 0.1 nM)”.

The target of the next assay is T7, H4K20me3 (Kme3 at peptide residue 8 (histone H4 K20); N-terminal biotin and aminohexanoic acid linker).
T7 construct: also called H4K20Me3 peptide
Nature of the assay: luciferase-fusion assay on immobilized peptide. The method, then:
as §1, §2
As for B10, the binding result is “no binding (tested: 0.1 nM)”.

Regarding B11, the binding result was “no binding (tested: 0.1 nM)”.

In another assay the target is T3, H3R17. As to the kind of experiment: luciferase-fusion assay on immobilized peptide. The method, then:
as §1, §2
With B12, the binding result is given as “no binding (tested: 0.1 nM)”.

Consider B10, for which the binding result is “no binding (tested: 0.1 nM)”.

Take B11: the binding result is “no binding (tested: 0.1 nM)”.

The target of another assay is T4, H3R17me1. As to the kind of experiment: luciferase-fusion assay on immobilized peptide. The method, then:
as §1, §2
Turning to B12, the binding result is recorded as “no binding (tested: 0.1 nM)”.

As for B11, the binding result is given as “no binding (tested: 0.1 nM)”.

Another assay has as its target T6, H4K20 peptide. Nature of the assay: luciferase-fusion assay on immobilized peptide, fusion at 0.1 nM, normalized to H3K9me3. The method, then: as §1, §2
As to B12, the binding result is on record as “binds”.

The target of the next assay is T7, H4K20me3. The description is as above. The procedure:
as §1, §2
Take B12: the binding result was “binds”.

The target of another assay is T6, H4K20 peptide. As to the kind of experiment: phage ELISA, specificity heatmap. The method, then:
(§3) Phage ELISA experiments were performed by coating 384-well MAXISORP plates (Thermo Fisher Scientific) with 25 μl/well of 2 μg/ml streptavidin (New England Biolabs, N7021S) in PBS pH 7.4, and incubating them at 4° C. for 16 h. Each well was blocked with 60 μl/well of PBS pH 7.4 containing 0.5% BSA (PB buffer) and incubated at 25° C. for 1 h. Plates were washed four times with 90 μl/well of PBS pH 7.4 containing 0.05% Tween-20 (PT buffer) and incubated with 25 μl/well of biotinylated histone peptides at 2 μg/ml in PBS pH 7.4 for 30 min at 25° C. Plates were incubated with phage stocks previously diluted three-fold in PB buffer containing 0.05% Tween-20 (PBT buffer) at 25° C. for 1 h with gentle agitation. Plates were washed and bound phage was detected using 25 μl/well of an anti-M13-HRP-conjugated antibody (1:3,000 dilution in PT buffer; SinoBiological, 11973-MM05T-H). Following incubation at 25° C. for 30 min with gentle shaking, plates were washed, and binding was assessed by adding 25 μl/well of the 3,3′,5,5′-tetramethylbenzidine (TMB) (Thermo Fisher) chromogenic substrate. Plates were incubated with TMB at 25° C. with gentle shaking for 5-10 min, and the colorimetric reaction was stopped by addition of 25 μl/well of a IM H3PO4 solution. Plates were read spectrophotometrically at 450 nm using a PowerWave XS microplate reader (BioTek).
Turning to B13, the binding result is “no binding”.

B14: the binding result is given as “no binding”.

Consider B15, for which the binding result was “no binding”.

With B16, the binding result was “no binding”.

With B17, the binding result is “no binding”.

Consider B18, for which the binding result is reported as “no binding”.

The next assay addresses T2, H3K14. Nature of the assay: phage ELISA, specificity heatmap. The method, then: as §3
Take B13: the binding result was “no binding”.

Consider B14, for which the binding result is recorded as “no binding”.

As for B15, the binding result is “no binding”.

Consider B16, for which the binding result was “no binding”.

Take B17: the binding result is “no binding”.

In the case of B18, the binding result is reported as “no binding”.

The target in the next assay is T7, H4K20me3. Nature of the assay: phage ELISA, specificity heatmap. The method, then: as §3
As for B13, the binding result is “no binding”.

Consider B14, for which the binding result was “no binding”.

Regarding B15, the binding result was “no binding”.

Regarding B16, the binding result is recorded as “no binding”.

On to B17, for which the binding result is on record as “no binding”.

As to B18, the binding result is recorded as “no binding”.

The target of a further assay is T5, H3K14Ac. As to the kind of experiment: phage ELISA, specificity heatmap. The procedure:
as §3
Take B13: the binding result is on record as “no binding”.

As for B14, the binding result is listed as “no binding”.

As for B15, the binding result is “no binding”.

As to B16, the binding result is recorded as “no binding”.

As to B17, the binding result is given as “no binding”.

Turning to B18, the binding result is “no binding”.

The next assay concerns the target T6, H4K20 peptide. As to the kind of experiment: luciferase-fusion assay on immobilized peptide, fusion at 100 nM, normalized to H3K9me3. The method, then: as §1, §2
As for B19, the binding result is “binds”.

For another assay, the target named is T7, H4K20me3. The description is as above. The method, then: as §1, §2
With B19, the binding result is recorded as “binds”.

The target of the next assay is T1, H3K27me3 peptide. Nature of the assay: fluorescence polarization, FITC-peptide 0.5 nM. This is another data set of the same source.
Experimental: as §4
FP assays was used to measure the affinities of each wild-type Cbx chromodomain (Cbx.wt) and its Cbx. VD version for the H3K9me3 and H3K27me3 peptides (Table 13).
B20: the Kd is 3000 nM.

Consider B1, for which the equilibrium dissociation constant (Kd) amounted to 5000 nM.
